Results from patent US20190388532A1 (ENTEROME S A, published 2019).

Biological target: T1, HLA-A*0201 molecule expressed by T2 cells (human)
T1 construct: MHC class I molecule on T2 cells
Assay: T2 cell HLA-A*0201 surface expression assay, flow cytometry; relative affinity = peptide concentration inducing 20% HLA-A*0201 expression / that of reference peptide HIV pol 589-597
Experimental: T2 cells (2.10⁵ cells per well) were incubated with decreasing conceontrations of peptides from 100 μM to 0.1 μM in a AIMV medium supplemented with 100 ng/μl of human β2 m at 37° C. for 16 hours. Cells were then washed two times and marked with the anti-HLA-A2 antibody coupled to PE (clone BB7.2, BD Pharmagen).
The experimental protocol, materials and methods correspond to those outlined in Example 3, with the only difference that the above mentioned antigenic peptides were used.

B1: IL13RA2-B (antigenic peptide FLPFGFILV, SEQ ID No 31) (peptide)
peptide: FLPFGFILV
notes: also called candidate peptide; IL13RA2-B pAg
- In vitro binding affinity: 0.49

Binder: ALPFGFILV (also called IL13RA2-ST) [peptide 1A9V (Eguchi et al. 2006)]
- In vitro binding affinity: 3.06

Binder: FLPFGFILM [peptide 1F9M]
- In vitro binding affinity: 2.62

Binder: ILPFGFILA [peptide 1I9A]
- In vitro binding affinity: 2.22
